Measured values from article PMC3292560, “Isolation and Characterization of EstC, a New Cold-Active Esterase from Streptomyces coelicolor A3(2)” (PLoS ONE, 2012).

Experiments:
Type in all cases: biochemical, Streptomyces coelicolor
purified protein [1] = substrate: CC(=O)Oc1ccc([N+](=O)[O-])cc1; experiment: purified protein; settings: 50 mM Tris-HCl pH 8.5, 0.1% Triton X-100, 35°C, fitted below substrate-inhibiting concentrations
purified protein [2] = substrate: CCCC(=O)Oc1ccc([N+](=O)[O-])cc1; experiment: purified protein; settings: 50 mM Tris-HCl pH 8.5, 0.1% Triton X-100, 35°C, fitted below substrate-inhibiting concentrations
purified protein [3] = substrate: CCCCC(=O)Oc1ccc([N+](=O)[O-])cc1; experiment: purified protein; settings: 50 mM Tris-HCl pH 8.5, 0.1% Triton X-100, 35°C, fitted below substrate-inhibiting concentrations
purified protein [4] = substrate: CCCCCC(=O)Oc1ccc([N+](=O)[O-])cc1; experiment: purified protein; settings: 50 mM Tris-HCl pH 8.5, 0.1% Triton X-100, 35°C, fitted below substrate-inhibiting concentrations
purified protein [5] = substrate: CCCCCCCC(=O)Oc1ccc([N+](=O)[O-])cc1; experiment: purified protein; settings: 50 mM Tris-HCl pH 8.5, 0.1% Triton X-100, 35°C, fitted below substrate-inhibiting concentrations
[6] = substrate: CC(=O)OCC(COC(C)=O)OC(C)=O; experiment: pH-stat titration of released fatty acid; settings: 5 mM Tris-HCl pH 8.5, 1% arabic gum emulsion, 35°C
Text: (§1) pH-stat titration of released fatty acid on EstC

[7] = substrate: CCCC(=O)OCC(COC(=O)CCC)OC(=O)CCC; experiment: pH-stat titration of released fatty acid; settings: 5 mM Tris-HCl pH 8.5, 1% arabic gum emulsion, 35°C
Text: as §1

B1: EstC (Streptomyces coelicolor A3(2)) (protein)
chain: MSRNAAFSPPPSARAYRLRTARGEFAVVDSPAAAGVAPRGVVMMLPGFTGSKEDFTLLHRPLGARGYRTVAVDGRGQYESDGPEHDESAYARPELARDVLAQAAALGTRVHLVGHSLGGQIARAAVLLDPAPFLSLTLMSSGPARISESQRQRVKLLRDALDTMTMAEVWEVMQAMGPPEEAGAPAPAHGPEDRVRLRDRWLGTRPAQLLATGGQLCTEPDRVAELAAVPLPFHVLSGTYDDTWPVPLLDEMALRLDARRTVVAGAEHSPNTDQPLPTARALADFWDDHPVPPRPYVR
notes: full-length ORF, no signal peptide, N-terminal His-tag (pET16b) kept, E. coli BL21(DE3), IMAC; 34665 Da with tag without initiator Met
Km (purified protein [1]): 2900 ± 800 µM | kcat (purified protein [1]): 451 ± 10 s⁻¹ | kcat/Km (purified protein [1]): 156000 ± 41000 M⁻¹ s⁻¹ | Km (purified protein [2]): 840 ± 50 µM | kcat (purified protein [2]): 124 ± 2 s⁻¹ | kcat/Km (purified protein [2]): 148000 ± 10000 M⁻¹ s⁻¹ | Km (purified protein [3]): 270 ± 30 µM | kcat (purified protein [3]): 199 ± 6 s⁻¹ | kcat/Km (purified protein [3]): 737000 ± 77000 M⁻¹ s⁻¹ | Km (purified protein [4]): 71 ± 4 µM | kcat (purified protein [4]): 41 ± 1 s⁻¹ | kcat/Km (purified protein [4]): 578000 ± 36000 M⁻¹ s⁻¹ | Km (purified protein [5]): 110 ± 18 µM | kcat (purified protein [5]): 58 ± 3 s⁻¹ | kcat/Km (purified protein [5]): 527000 ± 90000 M⁻¹ s⁻¹ | Km [6]: 90000 ± 1000 µM | kcat [6]: 151 ± 2 s⁻¹ | kcat/Km [6]: 1700 ± 30 M⁻¹ s⁻¹ | Km [7]: 620 ± 300 µM | kcat [7]: 14 ± 1 s⁻¹ | kcat/Km [7]: 23000 ± 12000 M⁻¹ s⁻¹
